± gives the uncertainty stated by the source.
Test: self-splicing fitness, log relative to wild type (ln ratio); higher = more splicing; Tetrahymena group I intron in knt gene, E. coli kanamycin selection, DiMSum; sequences stand for … in CUCUCU…GGAGGGAAAAGUUAUCAGGCAUGCACCUGGUAGCUAGUCUUUAAACCAAUAGAUUGCAUCGGUUUAAAAGGCAAGACCGUCAAAUUGCGGGAAAGGGGUCAACAGCCGUUCAGUACCAAGUCUCAGGGGAAACUUUGAGAUGGCCUUGCAAAGGGUAUGGUAAUAAGCUGACGGACAUGGUCCUAACCACGCAGCCAAGUCCUAAGUCAACAGAUCUUCUGUUGAUAUGGAUGCAGUUCACAGACUAAAUGUCGGUCGGGGAAGAUGUAUUCUUCUCAUAAGAUAUAGUCGGACCUCUCCUUAAUGGGAGCUAGCGGAUGAAGUGAUGCAACACUGGAGCCGCUGGGAACUAAUUUGUAUGCGAAAGUAUAUUGAUUAGUUUUGGAGUACUCGUGGUCG
Outline: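 Six replicate transformations of E. coli BL21(DE3) with a pET-22b(+) library were grown overnight at 37°C or 30°C. The library randomised all eight P1ex-region intron nucleotides, the intron lying in the knt kanamycin-resistance gene, and plates were LB agar with or without 25 μg/mL kanamycin plus 100 μg/mL carbenicillin, 50 μM IPTG and 0.2% rhamnose. Pooled colonies were amplicon-sequenced on an Illumina HiSeq 2500, and fitness is the DiMSum error-weighted combination of wild-type-normalised replicate fold changes, kanamycin versus none.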

Row | Sequence | self-splicing fitness (ln) (30 °C) | self-splicing fitness (ln) (37 °C)
1 | UAAGAGCAAUAUUACGCGCU | -3.17 ± 0.28 | -3.35 ± 0.39
2 | AAACAGCAAUAUUACGAGCC | -2.55 ± 0.2 | -1.75 ± 0.3
3 | GGCUAGCAAUAUUACGUAGG | -1.96 ± 0.14 | -1.78 ± 0.13
4 | ACGCAGCAAUAUUACGUAUU | -3.49 ± 0.32 | -2 ± 0.16
5 | GGAAAGCAAUAUUACGCCUU | -1.07 ± 0.29 | -1.29 ± 0.38
6 | UUACAGCAAUAUUACGCAGU | -4.23 ± 0.31 | -2.55 ± 0.28
7 | CGUGAGCAAUAUUACGUGGG | -2.91 ± 0.14 | -1.99 ± 0.11
8 | CCAAAGCAAUAUUACGAUGC | -3.78 ± 0.19 | -3.64 ± 0.24
9 | UGGCAGCAAUAUUACGAAGC | – | -1.72 ± 0.45
10 | ACCGAGCAAUAUUACGAGCA | -2.63 ± 0.13 | -1.99 ± 0.13
11 | AACCAGCAAUAUUACGACGG | -2.1 ± 0.089 | -0.974 ± 0.11
12 | AUCCAGCAAUAUUACGCUCC | -0.802 ± 0.12 | 0.304 ± 0.2
13 | AUAGAGCAAUAUUACGGCAA | -1.97 ± 0.21 | -0.382 ± 0.17
14 | GCUCAGCAAUAUUACGCGGU | -3.01 ± 0.15 | -2.22 ± 0.21
15 | AAUUAGCAAUAUUACGCCCC | -0.573 ± 0.33 | -0.798 ± 0.49
16 | CGUGAGCAAUAUUACGUAGU | -4.5 ± 0.36 | -2.19 ± 0.2
17 | CUUUAGCAAUAUUACGGGAA | -2.28 ± 0.22 | -1.58 ± 0.3
18 | GCUCAGCAAUAUUACGAAGA | -0.583 ± 0.12 | -0.863 ± 0.14
19 | CACCAGCAAUAUUACGUCGC | -3.1 ± 0.12 | -2.28 ± 0.17
20 | ACUCAGCAAUAUUACGUUUA | -1.54 ± 0.078 | -0.51 ± 0.086

Row | Sequence | self-splicing fitness (ln) (30 °C) | self-splicing fitness (ln) (37 °C)
21 | GUCAAGCAAUAUUACGAUUG | – | -3.59 ± 0.34
22 | UCCUAGCAAUAUUACGGGGC | -3.1 ± 0.23 | -2.77 ± 0.32
23 | AACUAGCAAUAUUACGCCUA | -0.593 ± 0.11 | -0.206 ± 0.11
24 | GAUCAGCAAUAUUACGUAGG | -1.87 ± 0.1 | -1.48 ± 0.14
25 | GCUCAGCAAUAUUACGUAAA | -0.495 ± 0.064 | 0.264 ± 0.086
26 | GGCUAGCAAUAUUACGUCCU | -1.68 ± 0.1 | -1.3 ± 0.13
27 | GCGAAGCAAUAUUACGUUUC | -2.9 ± 0.2 | –
28 | CCUCAGCAAUAUUACGACUC | -3.68 ± 0.43 | –
29 | AACGAGCAAUAUUACGGCGG | -2.67 ± 0.14 | -1.13 ± 0.13
30 | UCUCAGCAAUAUUACGUUUA | -2.98 ± 0.18 | -1.08 ± 0.13
31 | ACGGAGCAAUAUUACGGGGA | -1.07 ± 0.24 | -3.6 ± 0.42
32 | AAUGAGCAAUAUUACGCUGU | -1.84 ± 0.34 | -2.21 ± 0.4
33 | GGCCAGCAAUAUUACGAACU | -0.359 ± 0.07 | -0.12 ± 0.079
34 | AAGUAGCAAUAUUACGACUC | 0.858 ± 0.25 | 0.537 ± 0.24
35 | CUUGAGCAAUAUUACGCCUA | – | -3.13 ± 0.44
36 | GUUGAGCAAUAUUACGAUUU | -1.2 ± 0.12 | -1.64 ± 0.16
37 | GAUGAGCAAUAUUACGUGCA | -1.14 ± 0.12 | -1.82 ± 0.15
38 | UCACAGCAAUAUUACGAACU | -3.39 ± 0.16 | -2.23 ± 0.15
39 | CACAAGCAAUAUUACGUGUA | -3.53 ± 0.13 | -1.78 ± 0.093
40 | CGAUAGCAAUAUUACGCUAA | – | -0.607 ± 0.26
